The target in this assay is Pure recombinant PlmA (Synechococcus elongatus PCC7942). As to the kind of experiment: SEC; 0.1 mg pure PlmA in 0.1 ml on Superdex 200 10/300 GL, 0.3 ml/min, 50 mM Hepes pH 7.5, 0.5 M NaCl, 1 mM 2-mercaptoethanol; calibrated with protein standards.

Consider Pure recombinant PlmA (natural protein), for which the stoichiometry N (in general, a count of units in the complex or per binding partner) turned out to be 2.

The values are drawn from PMC5083789.
